Data published in the supplement of paper PMC10567573.

B1: NR2F2 (parent)
chain: NIPFFPDLQITDQVALLRLTWSEL

Variants of: B1
Assay: protein stability index of a GFP-peptide fusion (GPS, HEK-293T) (PSI 1-6); higher = more stable
Settings: c terminus: a fixed tail appended
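Note: lentivirally expressed fusions sorted by FACS into six bins by GFP to DsRed ratio, PSI derived from sequencing read proportions per bin multiplied by bin number.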

Protein stability index of substitutions, site by site:
V14: F 2.04, G 1.45, H 1.81, I 2.81, K 2.13, L 2.72, M 2.14, N 1.89, P 1.87, Q 1.99, R 1.78, S 1.74, T 2.38, W 3.25, Y 2.03
A15: C 2.07, D 1.92, E 1.55, F 3.86, G 1.19, H 1.57, I 3.62, K 1.99, L 2.58, M 2.71, N 2.38, P 1.69, Q 1.9, R 2.08, S 2, T 2.41, V 2.22, W 2.03, Y 1.67
L16: A 2.41, C 2.65, D 2.02, E 1.63, F 2.62, G 2.02, H 1.67, I 2.59, K 1.61, M 3.26, N 2.03, P 1.86, Q 2.33, R 1.84, S 2.1, T 3.48, V 2.34, W 1.65
L17: A 1.49, C 1.79, D 2.08, E 2.26, F 1.46, G 1.92, H 1.54, I 3.52, K 2.43, M 2.16, N 2.59, P 2.37, Q 1.99, R 1.98, S 1.79, T 3.49, V 3.46, W 1.92, Y 2.15
R18: A 2.33, C 2.63, D 1.54, E 2.63, F 2.89, G 2.25, H 1.39, I 3.87, K 2.52, L 2.89, M 2.28, N 2.45, P 2.21, Q 2.18, S 2.13, T 2.18, V 2.27, W 3.72, Y 2.75
L19: A 1.99, C 2.44, D 2.28, E 2.04, F 2.73, G 2.35, H 1.53, I 2.3, K 2.12, M 1.76, N 2.4, P 2.24, Q 2.07, R 2.08, S 2.15, T 2.23, V 3.94, W 2.23, Y 1.85
T20: A 1.83, C 2.16, D 1.81, E 1.96, F 1.47, G 2.23, H 2.49, I 4.49, K 1.59, L 2.23, M 1.89, N 1.56, P 2.02, Q 2.08, R 2.21, S 3.1, V 1.95, W 2.46, Y 2.69
W21: A 2.49, C 1.87, D 3.41, E 2.78, F 2.36, G 2.08, H 2, I 1.65, K 2.35, L 2.08, M 2, N 2.37, P 2.42, Q 2.21, R 2.14, S 2.36, T 1.79, V 2.4, Y 1.92
S22: A 2.17, C 3.38, D 2.4, E 2.1, F 3.38, G 3.17, H 2.71, I 2.24, K 1.68, L 3.32, M 3.55, N 2.28, P 1.82, Q 1.91, R 1.53, T 2.19, V 1.67, W 3.5, Y 3.13
E23: A 2.71
